Key:
[1] = biological target: PfoI restriction endonuclease, wild type (Pseudomonas fluorescens biovar 126); experiment: SEC; analytical gel filtration on Superdex75 10/300; 10 mM Tris-HCl pH 7.5, 5 mM calcium chloride, with 150 mM NaCl ('low salt') or 300 mM KCl ('high salt'); 13.8 uM PfoI dimer with or without oligoduplex SP14-GF (1:1.2)
[2] = biological target: PfoI restriction endonuclease, wild type (Pseudomonas fluorescens biovar 126); experiment: dynamic light scattering; PfoI-SP14 complex at various concentrations; Malvern Zetasizer uV; MW estimated from the apparent particle diameter

PfoI restriction endonuclease, wild type (enzyme)
stoichiometry N [1]: 2
stoichiometry N [2]: 2

Reference: publication PMC6344858
